Four molecules from patent US6858210B1, “Therapeutic and diagnostic domain 1 β2GPI polypeptides and methods of using same” (La Jolla Pharmaceutical Co., priority 1998, dated 2005) can be followed below.

Assay [1] has as its system human β2GPI-dependent antiphospholipid antibody. Description: Micropanning of mutant domain 1 phage, patient antibodies. The class given is binding. As to conditions: for Micropan score: Table 7B.
For assay [2], the system named is rabbit anti-human β2GPI. Description: Micropanning of mutant domain 1 phage, rabbit antibody. The format is binding. Also on record: key: 0 (<10 colonies) to 4+ (confluent) semiquantitative colony score. As to conditions: for Micropan score: Table 7B; for μpan score: Table 7A. As for the experimental part: Error prone PCR was carried out as follows. Domain 1 of human β2GPI was amplified by PCR under conditions that enhance the error rate of Taq polymerase. The primers were such that amino acids 1-64 were amplified. A Sfc 1 restriction site was incorporated as part of amino acid 1. At the 3′ end a Sal 1 restriction site was incorporated after amino acid 64. The PCR reaction was done as described by Leung et al. (1989) Technique 1:11, using 0.25 mM MnCl2. The PCR product was digested with Sfc 1 and Sal 1 and cloned into fd-tet-DOG2 that had been digested with Apal 1 and Sal 1. This positions domain 1 at the N-terminus of pill immediately after the pill signal sequence. The ligation reaction was electroporated in E. coli K91. Phage were harvested and titered by standard methods. Resulting phage clones were assayed using a micropanning technique.
Immulon type 2 plates were coated with protein G. Protein G was prepared at 5 μg/mL in 0.1 M NaHCO3 and 100 μL per well was added to the wells of microtitration plates and incubated overnight at 4° C. After discarding excess protein G solution from plates, each well was blocked with 200 μL 2YT for 1 hour at RT with agitation on an oscillating platform. Tris-buffered saline, pH 7.4/0.5% Tween 20 (TBS/Tween), was used with an automatic plate washer to wash the wells 4 times with 200 μL. One hundred μL human β2GPI-dependent antiphospholipid 6626, 6501, 6701, rabbit β2GPI-dependent antiphospholipid, or control normal IgG, diluted to 2.5 μg/mL with 2YT, was added to washed wells. The plate was incubated for 1 hour at room temperature on a rotating platform.
Phage to be tested by micropanning were obtained from the agar plates generated by biopanning. Each clone to be tested was transferred using sterile toothpicks to a separate well of a round-bottom 96-well microtitration plate (Corning, Corning, N.Y.) containing 200 μL 2YT/Tet per well and cultured overnight at 30° C. Following overnight incubation, phage cultures were centrifuged using a microtitration plate holder at 1300×g for 10 minutes at room temperature. Supernatants constituted the source of “neat” phage. The neat phage were diluted 1: 100-1:1000 and 100 μL was added to the plate containing protein G-bound β2GPI-dependent antiphospholipid antibody-6501 and normal IgG prepared as described above. The incubation of dilute phage with aPL antibody or control IgG was carried out for 2 hours at room temperature on a flat rotator. After 9 washes with TBS/Tween in an automated plate washer, the IgG-bound phage was eluted with 20 μL of 0.2 N HCl-glycine/0.1% BSA, pH 2.2. The elution incubation continued for 10 minutes at RT, during which time a new Corning microtitration plate was prepared containing 20 μL of freshly starved E. coli per well and kept chilled. One hundred forty μL of 29 mM Tris was added to the plate containing the phage eluates in order to neutralize the pH, following which 20 μL of phage suspension was transferred from each well to the corresponding well in the plate containing starved E. coli. After a 10 minute incubation at 37° C., 200 μL 2YT was added and incubation carried out an additional 30 minutes at 37° C. Using multichannel pipettors, 8 μL from each well was spotted on a large 2YT/Tet agar plate while retaining the original 8×12 well pattern and orientation from the last microtitration plate. After allowing the spots to dry for 30 minutes, the plate was incubated overnight at 30° C. The following day, colonies were semiquantitatively scored from 0 to 4+, with 0 symbolizing <10 colonies; 1+=10-30; 2+=30 colonies to 70% confluent; 3+=70%-90% confluent; 4+=confluent.
For Table 7A, the rabbit anti-human β2GPI was performed on two separate occasions. Mutations are listed with the original amino acid, the position number, and the identity of the amino acid at that position in the mutant. […] Non-mutated domain 1 have a score of 3+, while domain 5 phage gave a score of −. Silent mutations are not shown. […]

For assay [3], the system named is affinity purified β2GPI-dependent antiphospholipid antibody. The assay is described as follows: Competitive inhibition ELISA: recombinant β2GPI proteins compete for antibody binding to coated full length recombinant β2GPI. Also on record: species or system human. As to conditions: for IC50: read-out: 50% (concentration to give 50% inhibition). As for the experimental part:
Microtiter plates (MaxiSorp™, Nalge Nunc International, Denmark) were coated with 50 μl of full length recombinant β2GPI at 10 μg/ml in 0.1 M bicarbonate, pH 9.5, incubated overnight at 4° C., washed three times with 0.15 M PBS, pH 7.2, and blocked for one hour at room temperature with 75 μl of 2% Non-fat Dried Milk (Carnation, 2% NFDM). Test inhibitors were diluted in 2% NFDM and 25 μl of each dilution was added to coated wells. Affinity purified β2GPI-dependent antiphospholipid antibody was diluted in 2% NFDM and 25 μl, of a constant concentration, was added to the wells, including a group of wells that had no inhibitor, which acted as the positive controls. The contents of the wells were mixed and the plates were incubated at 37° C. for one hour. The plates were washed three times with PBS, 50 μl of alkaline phosphatase conjugated anti-human IgG, gamma chain specific, (Zymed #62-8422) diluted appropriately in 2% NFDM was added and incubated at 37° C. for one hour. The plates were washed three times with PBS, 50 μl of alkaline phosphatase PPMP chromogenic substrate solution was added and incubated for 30 minutes, at room temperature. The Optical Density, at 550 nm, was determined by reading the plates in a microplate autoreader (Bio-Teck Instruments, model EL3 11). The percent inhibition was determined by dividing the OD550 obtained in the presence of inhibitor by the mean OD550 obtained from the wells without inhibitor and then multiplying by 100 (more particularly, [mean A550 obtained from control wells without inhibitor less A550 of background] minus [A550 obtained in presence of inhibitor less A550 of background] divided by [mean A550 obtained from control wells without inhibitor less A550 of background] times 100).
Seven to nine different recombinant β2GPI mutant proteins were used to determine the antigenic specificity of affinity purified β2GPI-dependent antiphospholipid antibody preparations from 13 different patients. Each mutant recombinant β2GPI protein was tested, in a dose dependent fashion, for its ability to inhibit affinity purified β2GPI-dependent antiphospholipid antibody from binding to full length recombinant β2GPI. The following values were also observed for domain 1 only recombinant protein (1 - - - -; see Table 2 for designations): […]

Assay [4] shares this test system. Description: Direct binding ELISA, nickel chelate-coated wells charged with recombinant β2GPI proteins (no cardiolipin). Also on record: species or system human. The settings on record: O.D. at 550 nm. As for the experimental part:
Nickel Chelate-coated microwell plates (NCP 010 00 Xenopore Corp. 374 Midland Ave. Saddle Brook, N.J. USA) were coated with 50 μl of serial dilutions of the various recombinant β2GPI, in PBS, at room temperature for 2 hours. The plates were washed three times with PBS and blocked with 75 μl of a 1% gelatin (Sigma #G-2500) in PBS for one hour room temperature. […] The plates were washed three times with PBS, 50 μl of alkaline phosphatase conjugated anti-immunoglobulin (anti-human IgG, gamma chain specific, Zymed #62-8422) or anti-rabbit IgG (Zymed #62-6122) diluted appropriately in 1% gelatin was added and incubated at 37° C. for one hour. The plates were washed three times with PBS, 50 μl of alkaline phosphatase PPMP chromogenic substrate solution was added and incubated for 30 minutes at room temperature. The optical density, at 550 nm, was determined by reading the plates in a microplate autoreader (Bio-Teck Instruments, model EL311).
Seven to nine different recombinant β2GPI mutant proteins were examined to determine if they could support the direct binding of affinity purified β2GPI-dependent antiphospholipid antibody preparations in the absence of anionic phospholipid. All recombinant mutant β2GPI were assayed with affinity purified β2GPI-dependent antiphospholipid antibody preparations from 11 different patients. Each mutant recombinant β2GPI protein was tested, in a dose dependent fashion and GST-6his was included as a negative control. The recombinant mutant β2GPI proteins were bound to nickel coated microtiter plates via their 6-his tail. All recombinant mutant β2GPI proteins tested bound rabbit anti-β2GPI showing that they were assessable by antibody (FIG. 5).

Positions count from the first letter of the chain named. In names and notes the source's numbering stands. Read-outs that look alike come from different tables or passages of the source.

B1: Dom1: phage displaying wild type (WT) domain 1 (protein)
chain: GRTCPKPDDLPFSTVVPLKTFYEPGEEITYSCKPGYVSRGGMRKFICPLTGLWPINTLKCTPRV
On to B1, for which the Micropan score in assay [1] (antibody 6226), in assay [1] (antibody 6501), in assay [1] (antibody 6632), in assay [1] (antibody 6644), in assay [1] (antibody 6701) and in assay [1] (antibody 7008) was 4 throughout. Further, the Micropan score in assay [2] (1st column), in assay [2] (2nd column), in assay [2] (3rd column), in assay [2] (4th column) and in assay [2] (5th column) was 4 each time. Moreover, the μpan score in assay [1] (control phage for Table 7A, antibody not stated) is 3+ (3+=70%-90% confluent).

B2: 2A1: phage clone, domain 1 mutant T20S (protein)
chain: B1 chain with T20S
Consider B2, for which the μpan score in assay [1] (Table 7A, antibody 6501) was found to be 3; in assay [1] (Table 7A, antibody 6626), 3; in assay [1] (Table 7A, antibody 6701), 3; in assay [2] (first (or only) value) it was 3. In addition, the Micropan score in assay [1] (antibody 6226), in assay [1] (antibody 6501), in assay [1] (antibody 6632), in assay [1] (antibody 6644), in assay [1] (antibody 6701) and in assay [1] (antibody 7008) was 4 in each case. Also, the Micropan score in assay [2] (1st column), in assay [2] (2nd column), in assay [2] (3rd column) and in assay [2] (4th column) was 4 in each case.

B3: D11: phage clone, domain 1 mutant N56D (protein)
chain: B1 chain with N56D
As to B3, the values for the μpan score in assay [2] (first (or only) value) and in assay [2] (second value (second occasion)) were 2 and 3, respectively.

B4: 12---: recombinant β2GPI deletion mutant with domains 1 and 2 (protein)
chain: GRTCPKPDDLPFSTVVPLKTFYEPGEEITYSCKPGYVSRGGMRKFICPLTGLWPINTLKCTPRVCPFAGILENGAVRYTTFEYPNTISFSCNTGFYLNGADSAKCTEEGKWSPELPVCAPIIGHHHHHH
On to B4, for which the “Max (maximum inhibition observed at concentrations tested)” value in assay [3] (Ab 6203) was determined as 20%; in assay [3] (Ab 6501), 30%; in assay [3] (Ab 6626), 50%; in assay [3] (Ab 6632), 70%; in assay [3] (Ab 6644) it was 45%; in assay [3] (Ab 7008), 40%. The results for the “Max (maximum inhibition observed at concentrations tested)” value in assay [3] (Ab 7015), in assay [3] (Ab 7101) and in assay [3] (Ab 7104) were 30%, 20% and 90%, respectively. Also, the IC50 in assay [3] (Ab 6203) was above 10 µM; in assay [3] (Ab 6501) it was above 10 µM; in assay [3] (Ab 6626), above 10 µM; in assay [3] (Ab 6632), 3 µM; in assay [3] (Ab 6644) it was above 10 µM; in assay [3] (Ab 7008), above 10 µM. Also, the IC50 in assay [3] (Ab 7015) is above 10 µM; in assay [3] (Ab 7101) it was above 10 µM; in assay [3] (Ab 7104), 1 µM. For the same molecule, the “Maximum O.D.” value stood at 0.119 in assay [4] (Ab 6203); 0.028 in assay [4] (Ab 6501); 0.073 in assay [4] (Ab 6626); 0.016 in assay [4] (Ab 6632); 0.008 in assay [4] (Ab 7008); 0.063 in assay [4] (Ab 7015).
